This note sets out measurements from patent US7037674B1, “Cytochrome P450 reductases from poppy plants” (priority 1997, dated 2006).

This data set concerns cytochrome P-450 reductase from P. somniferum cell suspension cultures. The conditions noted are these: for Km: read-out: Km value, purified P. somniferum reductase (mixture of two isozymes). The protocol: Purification and sequence analysis. Cells were harvested from seven-day-old suspension cultures of P. somniferum by vacuum filtration, immediately shock frozen and stored at −20° C. All of the following operations were carried out at 4° C. 500 g frozen tissue were then homogenised with a mortar and pestle in 1 liter 0.1 M tricine/NaOH, pH 7.5 containing 15 mM thioglycolic acid. Cell debris was removed by centrifugation at 10,000× g, 30 min. The supernatant was filtered through four layers of cheesecloth and the microsomes were then isolated by MgCl2 precipitation according to (19). […] Microsomal protein was solubilized as follows. 2 mg CHAPS (3[(3-cholamidopropyl)dimethyl-ammonio]-1-propane-sulfonate, Roth) per mg microsomal protein was prepared in 1 mL of 0.1 M tricine/NaOH, pH 7.5 containing 15 mM thioglycolic acid. This solution was added dropwise to the microsomal suspension. 2% (v/v) Emulgen 911 (Kao Corporation) was then added and the solution slowly stirred for 1 h. Membrane fragments were removed by centrifugation at 105,000× g for 60 min. The total activity in the solubilized microsomes was assigned the value 100%. The solubilized cytochrome P-450 reductase was then purified to electrophoretic homogeneity according to (20).
Yeast microsomes were isolated according to either (22) or (23) and the presence cytochrome P-450 reductase was measured as the ability to reduce cytochrome c (24).

Where two headings read alike, the source gives them in different places.

For `NC(=O)C1=CN([C@@H]2O[C@H](COP(=O)(O)OP(=O)(O)OC[C@H]3O[C@@H](n4cnc5c(N)ncnc54)[C@H](OP(=O)(O)O)[C@@H]3O)[C@@H](O)[C@H]2O)C=CC1` [NADPH, reference compound], the Km was 4.2 µM.

Regarding cytochrome c [reference compound], the Km turned out to be 8.3 µM.

On to “purified reductase: cytochrome P-450 reductase purified from P. somniferum cell suspension cultures”, for which the “optimal molarity range of the Tricine buffer” value was 250 to 500 mM. Moreover, where the note is “at 100 mM Tricine”, the “activity declined to” value is 21%. Further, under “at 1 M Tricine”, the “activity declined to” value is 77%. The compound also gave a pH optimum (in 0.5 M Tricine buffer) of 8.0.

Usually Km stands for the concentration of substrate that gives half-maximal velocity.
